According to patent US20110118177:

What was measured:
[1] = tested on: bovine casein (Hammersten-grade) (Merck, Darmstadt, Germany)
[2] = molecular target: bovine serum albumin (BSA) (Roth, Karlsruhe, Germany) (UniProt P02769)
[3] = tested on: cyanophycin (multi-L-arginyl-poly-[L-aspartic acid]), Cyanophycin Granule Polypeptide

Chain of bovine serum albumin (BSA) (Roth, Karlsruhe, Germany) (P02769 25-607): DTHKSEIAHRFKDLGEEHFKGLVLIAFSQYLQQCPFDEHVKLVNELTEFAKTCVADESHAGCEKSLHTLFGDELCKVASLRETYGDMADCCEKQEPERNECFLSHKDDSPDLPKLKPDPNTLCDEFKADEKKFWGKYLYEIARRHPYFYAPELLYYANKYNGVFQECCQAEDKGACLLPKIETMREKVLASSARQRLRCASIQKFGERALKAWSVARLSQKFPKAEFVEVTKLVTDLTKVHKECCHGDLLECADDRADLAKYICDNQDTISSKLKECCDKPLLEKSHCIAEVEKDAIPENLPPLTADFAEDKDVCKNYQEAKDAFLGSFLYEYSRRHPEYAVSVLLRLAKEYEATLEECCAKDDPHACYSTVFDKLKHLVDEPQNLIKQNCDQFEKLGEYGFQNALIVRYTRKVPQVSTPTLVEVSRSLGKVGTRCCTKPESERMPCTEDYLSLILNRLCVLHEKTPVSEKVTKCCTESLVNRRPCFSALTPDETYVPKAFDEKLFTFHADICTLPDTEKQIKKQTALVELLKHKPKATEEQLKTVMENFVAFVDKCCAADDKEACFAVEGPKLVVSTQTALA

Substance: extracellular cyanophycinase (CGPase) CphEal from Pseudomonas alcaligenes strain DIP1
- degradation (substrate specificity test) [1]: Bovine casein and poly(aspartic acid) were minimally affected by the enzymatic activity of the purified CphEal
- degradation (in comparison to CGP) [2]: also BSA was partially degraded (65% in comparison to CGP)
- degradation activity (substrate specificity test) [3]: showed the highest degradation activity on CGP
